Reference: the Human Domainome abundance scans (Beltran et al. 2025)
± gives the uncertainty stated by the source.

B1: Lysine-specific demethylase 2B, residues 656 to 722; numbered along this chain, Q8NHM5 (parent)
chain: LPHTAVCLVCGEAGKEDTVEEEEGKFNLMLMECSICNEIIHPGCLKIKESEGVVNDELPNCWECPKC

Variants of: B1
Test: abundance fitness (aPCA) (normalised: wild type 0, dead -1); higher = more abundant; growth selection in yeast, the domain comes from the species named
Conditions: Homo sapiens

| Variant | abundance fitness |
| --- | --- |
| LPHTAVCLVCGEAGKEDTHEEEEGKFNLMLMECSICNEIIHPGCLKIKESEGVVNDELPNCWECPKC | -0.24 ± 0.44 |
| LPHTAVCLVCGEAGKEDTVEEEEGKFNLMLMECSICNEIIHPGCLKIKESEGVVNRELPNCWECPKC | 0.123 ± 0.057 |
| LPHTAVCLVCGEAGKEDTVEEEEGKFNLMLMECSICNEIIHPGCLKIKESEGVVNAELPNCWECPKC | 0.001 ± 0.066 |
| LPHTAVCLVCGEAGKEDTVEEEEGKFNLMLMECSICNEIIHPTCLKIKESEGVVNDELPNCWECPKC | -0.375 ± 0.11 |
| LPHTAVCLVCGEAGKEDTVEEEEGKFNLMLMECSICNEIIHPSCLKIKESEGVVNDELPNCWECPKC | -0.364 ± 0.18 |
| LPHTAVCLVCGEAGKEDTVEEEEGKFNLMLMECSICNEIIHPGCLKIKESEGVVNDELPNGWECPKC | -0.192 ± 0.09 |
| LPHTAVCLVCGEAGKEDTVEEEEGKFNLMLMECSICNEIIHPGCLKIKESEGVVNDELPNKWECPKC | 0.005 ± 0.12 |
| LPHTAVCLVCGEAGKEDTVEEEEGKFNLMLMECSICCEIIHPGCLKIKESEGVVNDELPNCWECPKC | 0.34 ± 0.33 |
| LWHTAVCLVCGEAGKEDTVEEEEGKFNLMLMECSICNEIIHPGCLKIKESEGVVNDELPNCWECPKC | 0.667 ± 0.14 |
| LDHTAVCLVCGEAGKEDTVEEEEGKFNLMLMECSICNEIIHPGCLKIKESEGVVNDELPNCWECPKC | 0.787 ± 0.15 |
| LFHTAVCLVCGEAGKEDTVEEEEGKFNLMLMECSICNEIIHPGCLKIKESEGVVNDELPNCWECPKC | 0.359 ± 0.31 |
| LPHTAVCKVCGEAGKEDTVEEEEGKFNLMLMECSICNEIIHPGCLKIKESEGVVNDELPNCWECPKC | 0.146 ± 0.13 |
| LPHTAVCLVCGEAGKEDTVEEEEGKFNLMLMECSICNEIYHPGCLKIKESEGVVNDELPNCWECPKC | -0.257 ± 0.25 |
| LPHTAVCLVCGEAGKEDTVEEEEGKFNLMLMECSICNEIIHPGCLKLKESEGVVNDELPNCWECPKC | -0.133 ± 0.072 |
| LPHTAVCLVCPEAGKEDTVEEEEGKFNLMLMECSICNEIIHPGCLKIKESEGVVNDELPNCWECPKC | -0.626 ± 0.15 |
| LPHTAVCLVCHEAGKEDTVEEEEGKFNLMLMECSICNEIIHPGCLKIKESEGVVNDELPNCWECPKC | -0.362 ± 0.27 |
| LPHTAVCLVCGEAGKEDTVEEEEGKFNLMLMECSICNEIIHPGCLKIKESEGVVNDELPNCWYCPKC | -0.263 ± 0.23 |
| LPHTAVCLVCGEAGKEDTVEEEEGKFNLMLMECSICNEIIHPGCLKIKESEGVVNDELPNCWMCPKC | -0.006 ± 0.1 |
| LPHTAVCLVCGEAGKEDTVEEEEGKFNLMLMECSICNEIIHPGCLKIKESEGVVNDELPNCWVCPKC | 0.039 ± 0.079 |
| LPHTAVCLVCGEAGKEDTVEFEEGKFNLMLMECSICNEIIHPGCLKIKESEGVVNDELPNCWECPKC | -0.559 ± 0.48 |
| LPHTAVCLVCGEAGKEDTVEEEEGKFNLMLMECSICNEIIHPGCLKIKESEGVINDELPNCWECPKC | 0.126 ± 0.12 |
| LPHTAVCLVCGEAGKEDTVEEEEGKFNLMLMECSICNEIIHPGCLKIKESEGVDNDELPNCWECPKC | -0.119 ± 0.11 |
| LPHTAVCLVCGEAGKEDTVEEEEGKFNLMLMECSICNEIIHPGCLKIFESEGVVNDELPNCWECPKC | -0.078 ± 0.19 |
| LPHTAVCLVCGEAGKEDTVEEEEGSFNLMLMECSICNEIIHPGCLKIKESEGVVNDELPNCWECPKC | -0.348 ± 0.14 |
| LPHTAVCLVCGNAGKEDTVEEEEGKFNLMLMECSICNEIIHPGCLKIKESEGVVNDELPNCWECPKC | -0.365 ± 0.17 |
| LPHTAVCLVCGPAGKEDTVEEEEGKFNLMLMECSICNEIIHPGCLKIKESEGVVNDELPNCWECPKC | -0.458 ± 0.12 |
| LPHTAVCLVCGIAGKEDTVEEEEGKFNLMLMECSICNEIIHPGCLKIKESEGVVNDELPNCWECPKC | -0.357 ± 0.23 |

| Variant | abundance fitness |
| --- | --- |
| LPHTAVCLVCGEAGKEDTVEEEEGKFNLMLMECSICNEIIHPGCWKIKESEGVVNDELPNCWECPKC | -0.493 ± 0.15 |
| LPHTAVCLVCGEAGKEMTVEEEEGKFNLMLMECSICNEIIHPGCLKIKESEGVVNDELPNCWECPKC | 0.392 ± 0.15 |
| LPHTAVCLVCGEAGKEDTVEEEEGKFNLMLMECSICNEIIHPGCLKIKESEGVVNDELPNCWELPKC | -0.935 ± 0.12 |
| LPHTAVCLVCGEAGKEDTVEEEEGKFNLMLMECSICNEIIHPGCLKIKESEGVVNDELPNCWETPKC | -0.952 ± 0.22 |
| LPHTAVCLVCGEAGKEDTVEEEEGKFNLMLMECSICNEIIHPGCLKIKRSEGVVNDELPNCWECPKC | -0.103 ± 0.053 |
| LPHTAVCLVCGEAGKEDTVEEEEGKFNLMLMECSICNEIIHPGCLKIKWSEGVVNDELPNCWECPKC | -0.235 ± 0.12 |
| LPHTAVCLVCGEAGKEDTVEEEEGKFNLMLMECSICNEIIHPGCLKIKNSEGVVNDELPNCWECPKC | 0.262 ± 0.45 |
| LPHTAVCLVCGEAGKEDTVEEEEQKFNLMLMECSICNEIIHPGCLKIKESEGVVNDELPNCWECPKC | -0.123 ± 0.1 |
| LPHTAVCLVCGEAGKEDTVEEEERKFNLMLMECSICNEIIHPGCLKIKESEGVVNDELPNCWECPKC | -0.121 ± 0.068 |
| LPHTAVCLVCGEAGKEDTVEEEEGKFNLMLMECSICNEIIHPGCLKIKESENVVNDELPNCWECPKC | -0.09 ± 0.32 |
| LPHTAVCLVCGEAGKEDTVEEEEGKFNLMLMECSIANEIIHPGCLKIKESEGVVNDELPNCWECPKC | -0.78 ± 0.16 |
| LPHTAVCLVCGEAGKEDGVEEEEGKFNLMLMECSICNEIIHPGCLKIKESEGVVNDELPNCWECPKC | -0.399 ± 0.088 |
| LPHTAVCLVCGEAGKEDTVEEERGKFNLMLMECSICNEIIHPGCLKIKESEGVVNDELPNCWECPKC | -0.058 ± 0.076 |
| LPHTAVCLVCGEAGKEDTVEEEAGKFNLMLMECSICNEIIHPGCLKIKESEGVVNDELPNCWECPKC | 0.004 ± 0.076 |
| LPHTAVCLVCGEAGKEDTVEEEGGKFNLMLMECSICNEIIHPGCLKIKESEGVVNDELPNCWECPKC | 0.13 ± 0.063 |
| LPHTAVCLVCGEAGKEDTVEEEEGKFNLMLMECSICNEIIHPGCLKIKESHGVVNDELPNCWECPKC | 0.097 ± 0.1 |
| LPHTAVCLVCGEAGKEDTVEEEEGKFNLMLMECSICNEIIHPGCLKIKESAGVVNDELPNCWECPKC | -0.044 ± 0.073 |
| LPHTAVCLVCGEAGKEDTVEEEEGKFNLMLMECSICNEIIHPGCLKIKESWGVVNDELPNCWECPKC | -0.14 ± 0.12 |
| LPHTAVCLVCGEAGKEDTVEEMEGKFNLMLMECSICNEIIHPGCLKIKESEGVVNDELPNCWECPKC | 0.113 ± 0.1 |
| LPHTAVCLVCGEAGKEDTVEEGEGKFNLMLMECSICNEIIHPGCLKIKESEGVVNDELPNCWECPKC | -0.009 ± 0.057 |
| LPHTAVCLVCGEAGKEDTVEEAEGKFNLMLMECSICNEIIHPGCLKIKESEGVVNDELPNCWECPKC | 0.032 ± 0.087 |
| LPHTAVCLVCGEAGKEDTVEEEEGKFNLMLMECSICNEIIHPGGLKIKESEGVVNDELPNCWECPKC | -0.764 ± 0.12 |
| LPHTAVCLVCGEAGKEDTVEEEEGKFNLMLMECSICNEIIHPGQLKIKESEGVVNDELPNCWECPKC | -0.79 ± 0.12 |
| LPHTAVCLVCGEAGKEDTVEEEEGKFNLMLMECSICNEIIHGGCLKIKESEGVVNDELPNCWECPKC | -0.302 ± 0.076 |
| LPHTAVCLVCGEAGKEDTVEEEEGKFNLMLMECSICNEIIHWGCLKIKESEGVVNDELPNCWECPKC | -0.32 ± 0.1 |
| LPHTAVCLVCGEAGKEDTVEEEEGKFNLMLMECSICNEIIHQGCLKIKESEGVVNDELPNCWECPKC | -0.189 ± 0.23 |
| LPHTAVCLVCGEAGKEDTVEEEEGKFNLMPMECSICNEIIHPGCLKIKESEGVVNDELPNCWECPKC | -0.435 ± 0.14 |

| Variant | abundance fitness |
| --- | --- |
| LPHTAVCLVCGEAGKEDTVEEEEGKFNLMLMECSICNRIIHPGCLKIKESEGVVNDELPNCWECPKC | 0.104 ± 0.07 |
| LPHTAVCLVCGEAGKEDTVEEEEGKFNLMLMECSICNFIIHPGCLKIKESEGVVNDELPNCWECPKC | -0.69 ± 0.29 |
| LPHTAVCLVCGEAGKEDTVEEEEGKFNLMLMECSICNEIIHPGCLKIKESEGVVNDELPNCWECSKC | -0.177 ± 0.077 |
| LPHTAVCLVCGEAGKEDTVEEEEGKFNRMLMECSICNEIIHPGCLKIKESEGVVNDELPNCWECPKC | -0.148 ± 0.072 |
| LPHTAVCLVCGEAGKEDTVEEEEGKFNYMLMECSICNEIIHPGCLKIKESEGVVNDELPNCWECPKC | -0.169 ± 0.49 |
| LPHTAVCLVCGEAGKQDTVEEEEGKFNLMLMECSICNEIIHPGCLKIKESEGVVNDELPNCWECPKC | 0.022 ± 0.12 |
| LPHTAVCLVCGEAGKLDTVEEEEGKFNLMLMECSICNEIIHPGCLKIKESEGVVNDELPNCWECPKC | -0.283 ± 0.071 |
| LPHTAVCLVCGEAGKEDTVEEEEGKFNLMLMECSICNEIIHPGCLKIKESEGVVNDELPWCWECPKC | -0.176 ± 0.1 |
| LPHTAVCLVCGEAGKEDTVEEEEGKFNLMLMECSICNEIIHPGCLKIKESEGHVNDELPNCWECPKC | -0.346 ± 0.2 |
| LPHTAVCLVCGEAGKEDTVEEEEGKFNLMLMECSICNEIIHPGCLKIKEEEGVVNDELPNCWECPKC | 0.034 ± 0.13 |
| LPHTAVCLVCGEAGKEDTVEEEEGKFNLMLMECSICNEIIHPGCLKIKEIEGVVNDELPNCWECPKC | -0.036 ± 0.17 |
| LPHTAVCLVCGEAGKEDTVEEEEGKFNLMLMWCSICNEIIHPGCLKIKESEGVVNDELPNCWECPKC | -0.247 ± 0.09 |
| LPHTAVCLVCGEAGKEDTVEEEEGKFNLMLMRCSICNEIIHPGCLKIKESEGVVNDELPNCWECPKC | 0.201 ± 0.06 |
| LPHTAVCLVCGEAGKEDTVEEEEGKFNLMLMECSICNEIIHPGCLKIKESEGVVNDELPNCEECPKC | -0.439 ± 0.11 |
| LPHTAVCLVCGEAGKEDTVEEEEGKFNLMLMECSICNEIIHPGCLKIKESEGVVNDELPNCCECPKC | -0.858 ± 0.26 |
| LPHTAVCLVSGEAGKEDTVEEEEGKFNLMLMECSICNEIIHPGCLKIKESEGVVNDELPNCWECPKC | -0.332 ± 0.076 |
| LPHTAVCLVHGEAGKEDTVEEEEGKFNLMLMECSICNEIIHPGCLKIKESEGVVNDELPNCWECPKC | -0.828 ± 0.31 |
| LPHTAVCLVKGEAGKEDTVEEEEGKFNLMLMECSICNEIIHPGCLKIKESEGVVNDELPNCWECPKC | -0.124 ± 0.12 |
| LPHTAVCLVCGEAGAEDTVEEEEGKFNLMLMECSICNEIIHPGCLKIKESEGVVNDELPNCWECPKC | -0.525 ± 0.11 |
| LPHTAVCLVCGEAGFEDTVEEEEGKFNLMLMECSICNEIIHPGCLKIKESEGVVNDELPNCWECPKC | -0.368 ± 0.14 |
| LPHTAVCLVCGEAGKEDTVEEEEGKFNLMLMECSICNEVIHPGCLKIKESEGVVNDELPNCWECPKC | 0.013 ± 0.074 |
| LPHTAVCLVCGEAGKEDTVEEEEGKFNLMLMECSICNEIIHPGCLKIKESEGVVVDELPNCWECPKC | -0.236 ± 0.1 |
| LPHTAVCLVCGEAGKEDTVEEEEGKFNLMLMECSICNEIIHPGCLKIKESEGVVEDELPNCWECPKC | -0.165 ± 0.13 |
| LPHTAVCLVCGEAGKEDTVEEEEGKFNLMLMECSICNEIILPGCLKIKESEGVVNDELPNCWECPKC | -0.925 ± 0.14 |
| LPHTAVCLVCGEAGKEDTVEEEEGKFNLMLMECSICNEIICPGCLKIKESEGVVNDELPNCWECPKC | -0.767 ± 0.25 |
| LPHTAVCLVCGEAGKEDTVEEEEGKFNLMLMECSICNEIISPGCLKIKESEGVVNDELPNCWECPKC | -1.03 ± 0.27 |
